Laboratory results as given in PMC12397115 (European Journal of Nuclear Medicine and Molecular Imaging, 2025).
Several values for one entry are separate records, joined by “and”; a condition that tells them apart may be missing. Equal values may be shown once. Read-outs that look alike come from different tables or passages of the source.

Assays:
[1] = Blood pharmacokinetics after one administration, population approach; type: in vivo, adolescent and adult patients
[2] = Observed, adult GEP-NET N=47, historical data; ref NETTER-1 and Erasmus studies; cited from earlier work
[3] = in vivo
[4] = type: in vivo, adolescent patients; settings: for Kidneys projected CAD, median (range) / Kidneys projected CAD, mean (SD): coefficient × 4 × 7.4
[5] = ref NETTER-1, cited from earlier work
[6] = Laboratory abnormalities during Cycle 1, safety set; parameters: species or system adolescent patients; settings: in vivo
[7] = Observed, adolescent GEP-NET and PPGL N=11
[8] = adolescents, 11 patients, population approach

C[C@@H](O)[C@H](NC(=O)[C@@H]1CSSC[C@H](NC(=O)[C@@H](Cc2ccccc2)NC(=O)CN2CCN(CC(=O)O)CCN(CC(=O)O)CCN(CC(=O)O)CC2)C(=O)N[C@@H](Cc2ccc(O)cc2)C(=O)N[C@H](Cc2c[nH]c3ccccc23)C(=O)N[C@@H](CCCCN)C(=O)N[C@@H]([C@@H](C)O)C(=O)N1)C(=O)O [177Lu-DOTATATE, [^177Lu]Lu-DOTA-TATE, metal not drawn]
AUClast, geometric mean (geometric CV%) [1, 7]: 41.00 (24.15) ng.h/mL | Cmax, geometric mean (geometric CV%) [1, 7]: 11.17 (33.04) ng/mL | Tmax, median (range) [1, 7]: 0.58 (0.50–0.77) hours | T½β, population value ([1]; adolescents): 36.9 h | AUCinf, overall mean ± SD [1, 8]: 35.84 ± 4.49 ng·h/mL | Cmax, overall mean ± SD [1, 8]: 10.33 ± 0.54 ng/mL | clearance, overall mean ± SD [1, 8]: 5.98 ± 0.69 L/h | Bone marrow Probability (%) >2 Gy [2]: 6% | Kidneys Probability (%) >29 Gy [2]: 13% | deaths by data cutoff [3]: no deaths | patients with AEs that resulted in infusion interruptions [3]: 18% | treatment-related nephrotoxicity [3]: no treatment-related nephrotoxicity was observed | Kidneys absorbed dose coefficient, mean (SD) ([4]; All patients): 0.78 ± 0.28 Gy/GBq and 0.78 (0.28) Gy/GBq | Kidneys absorbed dose coefficient, median (range) ([4]; All patients): 0.71 (0.46–1.3) Gy/GBq | Red marrow (blood) absorbed dose coefficient, mean (SD) ([4]; All patients): 0.026 ± 0.0050 Gy/GBq and 0.026 (0.0050) Gy/GBq | Red marrow (blood) absorbed dose coefficient, median (range) ([4]; All patients): 0.026 (0.019–0.035) Gy/GBq | Red marrow (blood) projected CAD, mean (SD) ([4]; All patients): 0.78 ± 0.15 Gy and 0.78 (0.15) Gy | Red marrow (blood) projected CAD, median (range) ([4]; All patients): 0.76 (0.55–1.0) Gy | Spleen absorbed dose coefficient, mean (SD) ([4]; All patients): 0.74 (0.27) Gy/GBq | Spleen absorbed dose coefficient, median (range) ([4]; All patients): 0.72 (0.28–1.1) Gy/GBq | Spleen projected CAD, mean (SD) ([4]; All patients): 22 (8.1) Gy | Spleen projected CAD, median (range) ([4]; All patients): 21 (8.3–34) Gy | Total body absorbed dose coefficient, mean (SD) ([4]; All patients): 0.040 (0.0095) Gy/GBq | Total body projected CAD, mean (SD) ([4]; All patients): 1.2 (0.28) Gy | Total body projected CAD, median (range) ([4]; All patients): 1.2 (0.66–1.6) Gy | Urinary bladder wall absorbed dose coefficient, mean (SD) ([4]; All patients): 0.55 (0.089) Gy/GBq | Urinary bladder wall absorbed dose coefficient, median (range) ([4]; All patients): 0.52 (0.47–0.68) Gy/GBq | Urinary bladder wall projected CAD, mean (SD) ([4]; All patients): 16 (2.6) Gy | Urinary bladder wall projected CAD, median (range) ([4]; All patients): 15 (14–20) Gy | Tumour absorbed dose coefficient, mean (SD) ([4]; All patients, 18 lesions): 2.0 (1.2) Gy/GBq | Tumour absorbed dose coefficient, median (range) ([4]; All patients, 18 lesions): 1.9 (0.17–5.1) Gy/GBq | Tumour projected CAD, mean (SD) ([4]; All patients, 18 lesions): 58 (37) Gy | Tumour projected CAD, median (range) ([4]; All patients, 18 lesions): 55 (4.9–150) Gy | Pituitary absorbed dose coefficient, mean (SD) ([4]; All patients, n=9): 1.1 (0.43) Gy/GBq | Pituitary absorbed dose coefficient, median (range) ([4]; All patients, n=9): 1.0 (0.61–1.9) Gy/GBq | Pituitary projected CAD, mean (SD) ([4]; All patients, n=9): 33 ± 13 Gy and 33 (13) Gy | Pituitary projected CAD, median (range) ([4]; All patients, n=9): 30 (18–56) Gy | Kidneys projected CAD, median (range) ([4]; All patients): 21 (14–40) Gy | Kidneys absorbed dose coefficient, mean (SD) ([4]; GEP-NET): 0.71 (0.25) Gy/GBq | Kidneys absorbed dose coefficient, median (range) ([4]; GEP-NET): 0.71 (0.46–0.96) Gy/GBq | Red marrow (blood) absorbed dose coefficient, mean (SD) ([4]; GEP-NET): 0.024 (0.0035) Gy/GBq | Red marrow (blood) absorbed dose coefficient, median (range) ([4]; GEP-NET): 0.024 (0.019–0.027) Gy/GBq | Red marrow (blood) projected CAD, mean (SD) ([4]; GEP-NET): 0.70 (0.10) Gy | Red marrow (blood) projected CAD, median (range) ([4]; GEP-NET): 0.72 (0.55–0.79) Gy | Spleen absorbed dose coefficient, mean (SD) ([4]; GEP-NET): 0.63 (0.39) Gy/GBq | Spleen absorbed dose coefficient, median (range) ([4]; GEP-NET): 0.55 (0.28–1.1) Gy/GBq | Spleen projected CAD, mean (SD) ([4]; GEP-NET): 19 (12) Gy | Spleen projected CAD, median (range) ([4]; GEP-NET): 16 (8.3–34) Gy | Total body absorbed dose coefficient, mean (SD) ([4]; GEP-NET): 0.040 (0.013) Gy/GBq | Total body absorbed dose coefficient, median (range) ([4]; GEP-NET): 0.040 (0.022–0.055) Gy/GBq | Total body projected CAD, mean (SD) ([4]; GEP-NET): 1.2 (0.40) Gy | Total body projected CAD, median (range) ([4]; GEP-NET): 1.2 (0.66–1.6) Gy | Urinary bladder wall absorbed dose coefficient, mean (SD) ([4]; GEP-NET): 0.50 (0.034) Gy/GBq | Urinary bladder wall absorbed dose coefficient, median (range) ([4]; GEP-NET): 0.49 (0.47–0.54) Gy/GBq | Urinary bladder wall projected CAD, mean (SD) ([4]; GEP-NET): 15 (1.0) Gy | Urinary bladder wall projected CAD, median (range) ([4]; GEP-NET): 14 (14–16) Gy | Tumour absorbed dose coefficient, mean (SD) ([4]; GEP-NET, 8 lesions): 2.6 (1.2) Gy/GBq | Tumour absorbed dose coefficient, median (range) ([4]; GEP-NET, 8 lesions): 2.3 (1.4–5.1) Gy/GBq | Tumour projected CAD, mean (SD) ([4]; GEP-NET, 8 lesions): 76 ± 35 Gy and 76 (35) Gy | Tumour projected CAD, median (range) ([4]; GEP-NET, 8 lesions): 69 (41–150) Gy | Pituitary absorbed dose coefficient, mean (SD) ([4]; GEP-NET, n=3): 1.2 (0.43) Gy/GBq | Pituitary absorbed dose coefficient, median (range) ([4]; GEP-NET, n=3): 1.1 (0.93–1.7) Gy/GBq | Pituitary projected CAD, mean (SD) ([4]; GEP-NET, n=3): 37 (13) Gy | Pituitary projected CAD, median (range) ([4]; GEP-NET, n=3): 32 (28–51) Gy | Kidneys projected CAD, mean (SD) ([4]; GEP-NET): 21 (7.3) Gy | Kidneys projected CAD, median (range) ([4]; GEP-NET): 21 (14–28) Gy | Kidneys absorbed dose coefficient, mean (SD) ([4]; PPGL): 0.82 (0.32) Gy/GBq | Kidneys absorbed dose coefficient, median (range) ([4]; PPGL): 0.71 (0.55–1.3) Gy/GBq | Pituitary absorbed dose coefficient, mean (SD) ([4]; PPGL): 1.0 (0.45) Gy/GBq | Pituitary absorbed dose coefficient, median (range) ([4]; PPGL): 0.93 (0.61–1.9) Gy/GBq | Pituitary projected CAD, mean (SD) ([4]; PPGL): 31 (13) Gy | Pituitary projected CAD, median (range) ([4]; PPGL): 28 (18–56) Gy | Red marrow (blood) absorbed dose coefficient, mean (SD) ([4]; PPGL): 0.028 (0.0052) Gy/GBq | Red marrow (blood) absorbed dose coefficient, median (range) ([4]; PPGL): 0.029 (0.022–0.035) Gy/GBq | Red marrow (blood) projected CAD, mean (SD) ([4]; PPGL): 0.83 (0.16) Gy | Red marrow (blood) projected CAD, median (range) ([4]; PPGL): 0.87 (0.64–1.0) Gy | Spleen absorbed dose coefficient, mean (SD) ([4]; PPGL): 0.82 (0.17) Gy/GBq | Spleen absorbed dose coefficient, median (range) ([4]; PPGL): 0.81 (0.64–1.1) Gy/GBq | Spleen projected CAD, mean (SD) ([4]; PPGL): 24 (5.0) Gy | Spleen projected CAD, median (range) ([4]; PPGL): 24 (19–31) Gy | Total body absorbed dose coefficient, mean (SD) ([4]; PPGL): 0.041 (0.0073) Gy/GBq | Total body projected CAD, mean (SD) ([4]; PPGL): 1.2 (0.21) Gy | Total body projected CAD, median (range) ([4]; PPGL): 1.2 (0.97–1.5) Gy | Urinary bladder wall absorbed dose coefficient, mean (SD) ([4]; PPGL): 0.59 (0.096) Gy/GBq | Urinary bladder wall absorbed dose coefficient, median (range) ([4]; PPGL): 0.63 (0.47–0.68) Gy/GBq | Urinary bladder wall projected CAD, mean (SD) ([4]; PPGL): 17 (2.8) Gy | Urinary bladder wall projected CAD, median (range) ([4]; PPGL): 19 (14–20) Gy | Tumour absorbed dose coefficient, mean (SD) ([4]; PPGL, 10 lesions): 1.5 (1.1) Gy/GBq | Tumour absorbed dose coefficient, median (range) ([4]; PPGL, 10 lesions): 1.2 (0.17–3.3) Gy/GBq | Tumour projected CAD, mean (SD) ([4]; PPGL, 10 lesions): 44 ± 34 Gy and 44 (34) Gy | Tumour projected CAD, median (range) ([4]; PPGL, 10 lesions): 36 (4.9–98) Gy | Kidneys projected CAD, mean (SD) ([4]; PPGL): 24 (9.3) Gy | Kidneys projected CAD, median (range) ([4]; PPGL): 21 (16–40) Gy | AUClast, geometric mean (geometric CV%) ([5]; Observed, adult GEP-NET N=20): 30.08 (50.38) ng.h/mL | Cmax, geometric mean (geometric CV%) ([5]; Observed, adult GEP-NET N=20): 8.98 (73.28) ng/mL | Tmax, median (range) ([5]; Observed, adult GEP-NET N=20): 0.47 (0.25–1.17) hours | T½β ([5]; adults with GEP-NET): 59.1 h | Grade ≥ 3 biochemistry abnormalities [6]: No
